Read-outs that look alike come from different tables or passages of the source.
Key:
[1] = test system: nontumor-bearing mice; format: in vivo; conditions: for median survival / MTD: nontumor-bearing mice; for survival rate at 90 days post-treatment: n=8; for MTD: 90 days, n=8/cohort
Procedure: MTD was defined as the highest dose given to the animals allowing 100% survival with no significant weight loss >15% throughout the experiment. Nontumor-bearing mice were randomly divided into seven cohorts used to evaluate MTD, six treatments and one control (n = 8/cohort); see Table 1. […] Control mice received DOTATATE (4 × 0.3 nmol) on four consecutive days. The animals were followed for 90 days. Serum was analyzed for the biomarker neutrophil gelatinase-associated lipocalin (NGAL) using ELISA (R&D Systems, 450 nm).

[2] = test system: tumor and normal organs of mice; test: Radiation dosimetry (MIRD schema, Olinda/EXM spherical S-factors); format: in vivo; conditions: for mean radiation absorbed tumor dose: predicted from ^111In-DOTATATE tumor uptake, AR42J tumor-bearing mice; for mean radiation absorbed dose for femur: high-dose cohort
Procedure: Saturation of receptor-specific tumor uptake was investigated by determining the kinetics of the tumor uptake with increasing injected mass of peptide. The time-activity curves for the tumor and normal organs were fitted by single-exponential functions using Prism-5 (GraphPad). Goodness of fit was analyzed with the Pearson correlation coefficient R ^2 > 0.8. Both F test and the Aikake information criterion were used to decide on the complexity of the curves.
Dosimetry was performed according to the MIRD schema by using the spherical nodes S-factors from the Olinda/EXM software. S-factors were interpolated from the actual weight of the organs and tissue. All organs and tissue were assumed to be spherical with a density of […]. Mean radiation absorbed doses were obtained as a function-injected mass of peptide, assuming a homogeneous distribution in the tumor and organs. […] Owing to the short path length of α-particles, only the self-dose within each organ was included. The threshold for lethality was determined with renal absorbed dose and injected activity as indicators. Logistic regression analysis was used to determine the LD50 for presumed renal toxicity-related death.

[3] = with L-lysine (35 mg), tumor-bearing mice, calculated

For `C[C@@H](O)[C@H](NC(=O)[C@@H]1CSSC[C@H](NC(=O)[C@@H](Cc2ccccc2)NC(=O)CN2CCN(CC(=O)O)CCN(CC(=O)O)CCN(CC(=O)O)CC2)C(=O)N[C@@H](Cc2ccc(O)cc2)C(=O)N[C@H](Cc2c[nH]c3ccccc23)C(=O)N[C@@H](CCCCN)C(=O)N[C@@H]([C@@H](C)O)C(=O)N1)C(=O)O` [^213Bi-DOTATATE, metal not drawn], which median survival ([1]; all treated cohorts except the high-dose without L-lysine) is on record?
The median survival was > 90 days.

What about the median survival ([1]; high-dose without L-lysine, 28.7 ± 1.2 MBq) of the same compound?
The median survival was 24 days.

And the “survival rate at 90 days post-treatment” value ([1]; high-dose(+), 28.3 ± 0.8 MBq, with L-lysine)?
The value was 75%.

What about the “survival rate at 90 days post-treatment” value ([1]; high-dose(−), 28.7 ± 1.2 MBq, without L-lysine) of the same compound?
Its value is 0%.

What about the MTD ([1]; in absence of L-lysine) of the same compound?
Its MTD is < 13.0 ± 1.6 MBq.

And the “survival rate at 90 days post-treatment” value ([1]; low-dose(+), 13.2 ± 0.9 MBq, with L-lysine)?
The value was 100%.

And the “survival rate at 90 days post-treatment” value ([1]; low-dose(−), 13.0 ± 1.6 MBq, without L-lysine)?
Its value is 87.5%.

And the “survival rate at 90 days post-treatment” value ([1]; medium-dose(+), 21.7 ± 1.9 MBq, with L-lysine)?
Its value is 100%.

And the “survival rate at 90 days post-treatment” value ([1]; medium-dose(−), 20.7 ± 0.8 MBq, without L-lysine)?
The value was 62.5%.

What about the MTD ([1]; with L-lysine renal protection (35 mg i.p.)) of the same compound?
Its MTD is 21.7 ± 1.9 MBq.

What about the “mean radiation absorbed tumor dose” value ([2]; 0.1 nmol peptide) of the same compound?
Its value is “approximately 0.5 Gy/MBq”.

And the “mean radiation absorbed tumor dose” value ([2]; 0.3 nmol peptide)?
Its value is “approximately 0.5 Gy/MBq”.

And the “mean radiation absorbed dose for femur” value ([2]; with pre-treatment of L-lysine)?
The value was 1.3 Gy.

What about the “mean radiation absorbed dose for femur” value ([2]; without L-lysine) of the same compound?
The value was 1.0 Gy.

What about the “mean renal absorbed dose” value ([2]; high-dose(+) cohort, 28.3 ± 0.8 MBq) of the same compound?
Its value is 16 Gy.

What about the “time-integrated activity coefficient in the kidney” value ([2]; mice pre-treated with L-lysine) of the same compound?
The value was 6.0 ± 2.4 min/g.

And the “time-integrated activity coefficient in the kidney” value ([2]; mice without pre-treatment of L-lysine)?
Its value is 12.0 ± 3.7 min/g.

And the renal absorbed dose ([2]; nontumor-bearing animals, with L-lysine)?
The renal absorbed dose was 0.50 Gy/MBq.

And the renal absorbed dose ([2]; nontumor-bearing animals, without L-lysine)?
Its renal absorbed dose is 1.0 Gy/MBq.

What about the renal absorbed dose ([2]; tumor-bearing animals, with L-lysine) of the same compound?
Its renal absorbed dose is 0.56 Gy/MBq.

What about the renal absorbed dose ([2]; tumor-bearing animals, without L-lysine) of the same compound?
The renal absorbed dose was 1.1 Gy/MBq.

What about the “Radiation absorbed dose per administered activity, Adrenals, Total α” value [2, 3] of the same compound?
The value was 5.60E-02 Gy/MBq.

What about the “Radiation absorbed dose per administered activity, Adrenals, Total β” value [2, 3] of the same compound?
Its value is 2.00E-03 Gy/MBq.

And the “Radiation absorbed dose per administered activity, Adrenals, ^209Pb β” value [2, 3]?
Its value is 1.30E-04 Gy/MBq.

And the “Radiation absorbed dose per administered activity, Adrenals, ^209Tl β + γ” value [2, 3]?
The value was 4.00E-05 Gy/MBq.

And the “Radiation absorbed dose per administered activity, Adrenals, ^213Bi α” value [2, 3]?
The value was 8.00E-04 Gy/MBq.

And the “Radiation absorbed dose per administered activity, Adrenals, ^213Bi β” value [2, 3]?
The value was 1.80E-03 Gy/MBq.

What about the “Radiation absorbed dose per administered activity, Adrenals, ^213Po α” value [2, 3] of the same compound?
The value was 5.49E-02 Gy/MBq.

What about the “Radiation absorbed dose per administered activity, Blood, Total α” value [2, 3] of the same compound?
Its value is 1.09E-01 Gy/MBq.

And the “Radiation absorbed dose per administered activity, Blood, Total β” value [2, 3]?
The value was 6.00E-03 Gy/MBq.

And the “Radiation absorbed dose per administered activity, Blood, ^209Pb β” value [2, 3]?
The value was 2.00E-04 Gy/MBq.

What about the “Radiation absorbed dose per administered activity, Blood, ^209Tl β + γ” value [2, 3] of the same compound?
Its value is 1.40E-04 Gy/MBq.

And the “Radiation absorbed dose per administered activity, Blood, ^213Bi α” value [2, 3]?
The value was 1.60E-03 Gy/MBq.

And the “Radiation absorbed dose per administered activity, Blood, ^213Bi β” value [2, 3]?
The value was 5.20E-03 Gy/MBq.

And the “Radiation absorbed dose per administered activity, Femur, Total α” value [2, 3]?
Its value is 4.20E-02 Gy/MBq.

And the “Radiation absorbed dose per administered activity, Femur, Total β” value [2, 3]?
Its value is 2.00E-03 Gy/MBq.

What about the “Radiation absorbed dose per administered activity, Femur, ^209Pb β” value [2, 3] of the same compound?
Its value is 1.00E-04 Gy/MBq.

And the “Radiation absorbed dose per administered activity, Femur, ^209Tl β + γ” value [2, 3]?
The value was 4.00E-05 Gy/MBq.

And the “Radiation absorbed dose per administered activity, Femur, ^213Bi α” value [2, 3]?
The value was 6.00E-04 Gy/MBq.

And the “Radiation absorbed dose per administered activity, Femur, ^213Bi β” value [2, 3]?
Its value is 1.60E-03 Gy/MBq.

And the “Radiation absorbed dose per administered activity, Femur, ^213Po α” value [2, 3]?
Its value is 4.13E-02 Gy/MBq.

And the “Radiation absorbed dose per administered activity, Kidney, Total α” value [2, 3]?
The value was 5.33E-01 Gy/MBq.

What about the “Radiation absorbed dose per administered activity, Kidney, Total β” value [2, 3] of the same compound?
Its value is 2.60E-02 Gy/MBq.

And the “Radiation absorbed dose per administered activity, Kidney, ^209Pb β” value [2, 3]?
Its value is 1.40E-03 Gy/MBq.

What about the “Radiation absorbed dose per administered activity, Kidney, ^209Tl β + γ” value [2, 3] of the same compound?
Its value is 6.30E-04 Gy/MBq.

What about the “Radiation absorbed dose per administered activity, Kidney, ^213Bi α” value [2, 3] of the same compound?
Its value is 8.00E-03 Gy/MBq.

And the “Radiation absorbed dose per administered activity, Kidney, ^213Bi β” value [2, 3]?
Its value is 2.37E-02 Gy/MBq.

And the “Radiation absorbed dose per administered activity, Kidney, ^213Po α” value [2, 3]?
Its value is 5.25E-01 Gy/MBq.

What about the “Radiation absorbed dose per administered activity, Pancreas, Total α” value [2, 3] of the same compound?
The value was 1.36E-01 Gy/MBq.

And the “Radiation absorbed dose per administered activity, Pancreas, Total β” value [2, 3]?
Its value is 5.00E-03 Gy/MBq.

What about the “Radiation absorbed dose per administered activity, Pancreas, ^209Pb β” value [2, 3] of the same compound?
The value was 8.90E-04 Gy/MBq.

What about the “Radiation absorbed dose per administered activity, Pancreas, ^209Tl β + γ” value [2, 3] of the same compound?
The value was 1.00E-04 Gy/MBq.

What about the “Radiation absorbed dose per administered activity, Pancreas, ^213Bi α” value [2, 3] of the same compound?
The value was 2.00E-03 Gy/MBq.

And the “Radiation absorbed dose per administered activity, Pancreas, ^213Bi β” value [2, 3]?
Its value is 4.50E-03 Gy/MBq.

And the “Radiation absorbed dose per administered activity, Pancreas, ^213Po α” value [2, 3]?
Its value is 1.34E-01 Gy/MBq.

What about the “Radiation absorbed dose per administered activity, Stomach, Total α” value [2, 3] of the same compound?
Its value is 6.10E-02 Gy/MBq.

What about the “Radiation absorbed dose per administered activity, Stomach, Total β” value [2, 3] of the same compound?
Its value is 3.00E-03 Gy/MBq.

And the “Radiation absorbed dose per administered activity, Stomach, ^209Pb β” value [2, 3]?
The value was 2.20E-04 Gy/MBq.

What about the “Radiation absorbed dose per administered activity, Stomach, ^209Tl β + γ” value [2, 3] of the same compound?
Its value is 7.00E-05 Gy/MBq.

What about the “Radiation absorbed dose per administered activity, Stomach, ^213Bi α” value [2, 3] of the same compound?
The value was 9.00E-04 Gy/MBq.
